Data from patent US20250127814A1 (UNIVERSITY OF CHICAGO, published 2025).
Changes are numbered by the printed parent chain. Blank lines part the entries; values can stand above or below the binder they belong to.

Legend:
[1] = target: T1, Borealin C-terminal domain (207-280) (human, UniProt Q53HL2 207-280, biotinylated on the Avi-tag (co-expression with BirA)); test: SPR, His-tagged target on NTA chip, 2-fold dilutions of the Fab injected, 1:1 Langmuir fit [panel B, top]
T1 construct: range 207-280; The construct carries His- and Avi-tags; Expressed in E. coli; Immobilised via neutravidin (ELISA) or His-tag/NTA chip (SPR); also called Bor-C
T1 sequence (looked up): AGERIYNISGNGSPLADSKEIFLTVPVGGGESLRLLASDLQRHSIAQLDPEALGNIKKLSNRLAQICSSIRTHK
Description: (§1) The targets were immobilized onto a nitrilotriacetic acid (NTA) sensor chip via His-tag. 2-fold serial dilutions of the Fab were injected following ligand immobilization on the sensor chip. For each kinetic assay at least five dilutions of the Fab were tested. The data were fitted using 1:1 Langmuir Model to obtain the on-rate, off-rate and the affinity (KD) of the Fab-target interaction.

[2] = target: T2, Borealin N-terminal domain (20-88) (human, UniProt Q53HL2 20-88, biotinylated on the Avi-tag (co-expression with BirA)); test: Western blot of recombinant CPC domains, Fab as primary reagent, anti-human F(ab')2 IgG-HRP [panel B]
T2 construct: range 20-88; The construct carries His- and Avi-tags; Expressed in E. coli; Immobilised via neutravidin (ELISA) or His-tag/NTA chip (SPR); also called Bor-N
T2 sequence (looked up): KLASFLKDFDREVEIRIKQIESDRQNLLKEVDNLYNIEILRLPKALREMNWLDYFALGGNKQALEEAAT
Description: (§2) Recombinant CPC targets Survivin-N(N-term), Borealin-N(N-term), Borealin-C(C-term) and INCENP-N(N-term) domains were run on SDS-PAGE and transferred into PVDF membrane. […] The assay was developed by using a secondary anti-human-F(ab′)2 IgG-HRP reagent
(§3) Membranes were stained with Ponceau S dye to verify correct transfer of the proteins, were briefly washed with ddH2O and blocked with 4% skimmed milk in TBS-T containing 0.05% Tween20 for 30 min. at RT on the shaker. Blocking solution was discarded and membranes were incubated with Borealin Fabs as primary detection reagents at concentration 5-10 µg/ml, in blocking buffer at 4 C O/N on the shaker. Membranes were washed 3 times with TBS-T and incubated with secondary anti-human FAB′2 specific HRP-conjugated IgG (diluted 1:10,000 in blocking buffer) for 45 minutes at RT, shaking. Membranes were washed again 3× with TBS-T, developed with ECL chemiluminescent substrate and visualized with the Biorad imaging instrument (FIG. 10).

Sur-N = target: T3, Sur-N; test: as above
T3 construct: Specificity lane in the Western blots; also called Survivin-N (N-term); Sur N: 1-120
T3 sequence (chain, as listed by the source limits assumed): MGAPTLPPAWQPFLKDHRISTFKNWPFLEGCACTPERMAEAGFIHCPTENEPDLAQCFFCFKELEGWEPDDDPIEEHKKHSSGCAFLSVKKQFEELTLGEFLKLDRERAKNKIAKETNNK
Description: as §2, §3

INC-N = target: T4, INC-N; test: as above
T4 construct: Specificity lane in the Western blots; also called INCENP-N (N-term); Inc: 1-58
T4 chain: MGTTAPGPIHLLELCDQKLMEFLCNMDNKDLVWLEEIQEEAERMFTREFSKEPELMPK
Description: as §2, §3

[3] = target: T2, Borealin N-terminal domain (20-88); test: single-point Fab ELISA, 50 nM biotinylated target on neutravidin, 200 nM Fab, protein L-HRP [panel A]
Description: (§4) To rapidly reconfirm the binding and specificity of the obtained Fabs after reformatting into the expression vectors single-point Fab ELISA was performed (FIG. 2). Briefly, 50 nM Avi-tagged targets were immobilized on the prepared NAV-coated and blocked with 0.5% BSA in PBS 96-well ELISA plates. The target coated plates were washed with appropriate buffer (TBST or PBST) and were incubated with 200 nM Fab for 20 minutes and then washed. The washed plates were incubated with protein L conjugated with HRP (1:5000 diluted in TBST) for 30 minutes. Plates were washed and the reaction was developed using the TMB chromogenic substrate (Thermofisher) and subsequently quenched with 1M HCl. Absorbance was read at 450 nm on Epoch plate reader.

[4] = target: T1, Borealin C-terminal domain (207-280); test: SPR, His-tagged target on NTA chip, 2-fold dilutions of the Fab injected, 1:1 Langmuir fit [panel B, middle]
Description: as §1

[5] = target: T1, Borealin C-terminal domain (207-280); test: Western blot of recombinant CPC domains, Fab as primary reagent, anti-human F(ab')2 IgG-HRP [panel A]
Description: as §2, §3

[6] = target: T2, Borealin N-terminal domain (20-88); test: SPR, His-tagged target on NTA chip, 2-fold dilutions of the Fab injected, 1:1 Langmuir fit [panel A]
Description: as §1

[7] = target: T1, Borealin C-terminal domain (207-280); test: single-point Fab ELISA, 50 nM biotinylated target on neutravidin, protein L-HRP [panel B]
Description: as §4

[8] = target: T2, Borealin N-terminal domain (20-88); test: single-point Fab ELISA, 50 nM biotinylated target on neutravidin, protein L-HRP [panel A]
Description: as §4

[9] = target: T1, Borealin C-terminal domain (207-280); test: SPR, His-tagged target on NTA chip, 2-fold dilutions of the Fab injected, 1:1 Langmuir fit [panel B, bottom]
Description: as §1

Kd [1]: 11.6 nM
B1: BOR-C-56 (Fab, V domains shown)
VH: EVQLVESGGGLVQPGGSLRLSCAASGFNISSSSIHWVRQAPGKGLEWVAYISSYSGSTYYADSVKGRFTISADTSKNTAYLQMNSLRAEDTAVYYCARYYHSPLWYYSYSGMDYWGQGTLVTVSS
VL: DIQMTQSPSSLSASVGDRVTITCRASQSVSSAVAWYQQKPGKAPKLLIYSASSLYSGVPSRFSGSRSGTDFTLTISSLQPEDFATYYCQQDYSWSPITFGQGTKVEIKR
notes: also called BOR-C-56 Fab
binding result [2]: no binding (tested: 5-10 ug/ml (the text prints 'lg/ml')) | binding result (Sur-N): no binding (tested: 5-10 ug/ml (the text prints 'lg/ml')) | binding result (INC-N): no binding (tested: 5-10 ug/ml (the text prints 'lg/ml'))

binding result [3]: binds
B2: BOR-N-51 (Fab, V domains shown)
VH: EVQLVESGGGLVQPGGSLRLSCAASGFNVYSYSIHWVRQAPGKGLEWVASIYSSYSYTSYADSVKGRFTISADTSKNTAYLQMNSLRAEDTAVYYCARKYHFKPTYWGAMDYWGQGTLVTVSS
VL: B1 VL with D91S, Y92S, S93L, W94Y, S95Y, I97L
notes: also called BOR-N-51 Fab

Kd [4]: 8.5 nM
B3: BOR-C-61 (Fab, V domains shown)
VH: EVQLVESGGGLVQPGGSLRLSCAASGFNFYSSYIHWVRQAPGKGLEWVASISSSSGSTSYADSVKGRFTISADTSKNTAYLQMNSLRAEDTAVYYCARRSGGGLDYWGQGTLVTVSS
VL: DIQMTQSPSSLSASVGDRVTITCRASQSVSSAVAWYQQKPGKAPKLLIYSASSLYSGVPSRFSGSRSGTDFTLTISSLQPEDFATYYCQQSSSSLITFGQGTKVEIKR
notes: also called BOR-C-61 Fab

Kd [6]: 0.4 nM
B4: BOR-N-48 (Fab, V domains shown)
VH: EVQLVESGGGLVQPGGSLRLSCAASGFNFSYSSIHWVRQAPGKGLEWVASIYPYSGSTYYADSVKGRFTISADTSKNTAYLQMNSLRAEDTAVYYCARKQVSGWWWYYGFDYWGQGTLVTVSS
VL: B3 VL with S92Y, S93W, S94W, L95P
notes: also called BOR-N-48 Fab
binding result [5]: no binding (tested: 5-10 ug/ml (the text prints 'lg/ml'))

binding result [3]: binds
B5: BOR-N-49 (Fab, V domains shown)
VH: EVQLVESGGGLVQPGGSLRLSCAASGFNVSSYSIHWVRQAPGKGLEWVASIYSSSSSTYYADSVKGRFTISADTSKNTAYLQMNSLRAEDTAVYYCARRYYHYRYPLFWGWYGMDYWGQGTLVTVSS
VL: B3 VL with S92F, S93W, S94W, L95P
notes: also called BOR-N-49 Fab

binding result [7]: no binding (tested: 200 nM)
B6: BOR-C-58 (Fab, V domains shown)
VH: EVQLVESGGGLVQPGGSLRLSCAASGFNVSSYSIHWVRQAPGKGLEWVASISPYYGYTSYADSVKGRFTISADTSKNTAYLQMNSLRAEDTAVYYCARHYYYGFSWFSSGYAMDYWGQGTLVTVSS
VL: B3 VL with S91G, L95P
notes: also called BOR-C-58 Fab

binding result [8]: no binding (tested: 200 nM)
B7: BOR-N-65 (Fab, V domains shown)
VH: EVQLVESGGGLVQPGGSLRLSCAASGFNFSSSSIHWVRQAPGKGLEWVASISSSSGSTSYADSVKGRFTISADTSKNTAYLQMNSLRAEDTAVYYCARESSQTKKYWYWVVQWYTAMDYWGQGTLVTVSS
VL: B3 VL with S91Y, S93Q, S94W
notes: also called BOR-N-65 Fab

binding result [3]: binds
B8: BOR-N-50 (Fab, V domains shown)
VH: EVQLVESGGGLVQPGGSLRLSCAASGFNVYSYSIHWVRQAPGKGLEWVASIYSYSGYTYYADSVKGRFTISADTSKNTAYLQMNSLRAEDTAVYYCARSTYPHVYLYFGLDYWGQGTLVTVSS
VL: B3 VL with S92Y, S93Y, S94W, L95P, I96V
notes: also called BOR-N-50 Fab

Kd [9]: 0.6 nM
B9: BOR-C-64 (Fab, V domains shown)
VH: EVQLVESGGGLVQPGGSLRLSCAASGFNVYYSSIHWVRQAPGKGLEWVASISSYYGSTYYADSVKGRFTISADTSKNTAYLQMNSLRAEDTAVYYCARWKWVAMDYWGQGTLVTVSS
VL: B3 VL with S91D, S92L, S93F, S94M, L95P
notes: also called BOR-C-64 Fab
